# Experimental data as given in patent US20200362047A1 (CRESCENDO BIOLOGICS, published 2020).
# Substitutions are numbered along the chain they refer to.
# T1: human OX40-Fc (R&D Systems cat no. 3388-OX) (human, UniProt P43489 29-216)
# T1 construct: Bought protein; not shown: Fc tag
# T1 sequence (looked up): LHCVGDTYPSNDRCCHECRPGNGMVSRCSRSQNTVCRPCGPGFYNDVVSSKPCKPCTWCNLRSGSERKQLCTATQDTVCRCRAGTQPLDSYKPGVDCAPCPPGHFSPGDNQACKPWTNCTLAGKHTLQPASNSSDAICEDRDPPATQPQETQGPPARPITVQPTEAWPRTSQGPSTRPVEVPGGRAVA
# B1: Humabody VH 1.18 (VHH)
# VH: EVQLVESGGGLVQPGGSLRLSCAASGFTFSTHWMNWARQAPGKELEWVANINQDGSEKYYVDSVEGRFTISRDNANNSLYLQMNSLRAEDTAVYYCARGGVGYGDSHFGMDVWGLGTTVTVSSHHHHHH
# notes: human single VH domain
# B2: Humabody VH 1.11 (VHH)
# VH: EVQLVESGGGLVQPGGSLRLSCEASGFTFSDYWMNWARQAPGKGLEWVANIKEDGSEKYYVDSVEGRFTISRDNAKNSTYLQMNSLRAEDTAVYYCARGGAGYSMSHYGMDVWGQGTTVTVSSHHHHHH
# notes: human single VH domain
# B3: Humabody VH 1.52 (VHH)
# VH: EVQLVESGGGLVQIGGSLRLSCAASGFTFSKYWMIWVRQAPEKGLEWVANINQDGSEKYYVDSVEGRFTISRDNANNSLFLQMNSLRAEDTAVYYCARGGDDYSISHFGMDVSGQGTRVTVSSHHHHHH
# notes: human single VH domain
# B4: Humabody VH 1.1 (VHH)
# VH: EVQLVESGGGLVQPGGSLRLSCAASGFTFSSHWMTWFRQAPGKGLEWVAHIKEDGSEKYYEDSVEGRFTVSRDNAKNSVYLQMNSLRAEDTAVYYCARGGDGYSDSHFGVDVWGQGTTVTVSSHHHHHH
# notes: human single VH domain; also called single domain antibody 1.1
# B5: Humabody VH 1.78 (VHH)
# VH: QVQLVESGGGLVQPGGSLRLSCAATGFTLSNYWMNWVRQAPGKGLEWVANINQDGSERYYVDSVKGRFTISRDNAKNSLYLQMSSLRAEDTAVYFCARGGEGYGVDHYGLDVSGQGTTVTVSSHHHHHH
# notes: human single VH domain
# B6: Humabody VH 2.1 (VHH)
# VH: EVQLVESGGGLVKPGGSLRVSCAASGFTFSDYYMSWFRQAPGKGLEWVSYISGSGDIIDYADSVKGRFTISRDNAKNSLYLQMNNLRAEDTAVYHCAREDSRLTGTTDFDNWGQGTLVTVSSHHHHHH
# notes: human single VH domain
# B7: Humabody VH 2.8 (VHH)
# VH: B6 VH with V20L, T28A, Y50H, D56T, I57T, N85S, L103M, T104P
# notes: human single VH domain
# B8: Humabody VH 2.14 (VHH)
# VH: EVQLVESGGGLVKPGGSLRLSCAASGFTFSDYYMTWFRQAPGKGLEWISYISGSGDTIDYAESVKGRFTISRDNAKNSLYLQMNSLRAEDTAVYYCAREDIRMPGTTDFDHWGQGTLVTVSSHHHHHH
# notes: human single VH domain
# B9: Humabody VH 2.9 (VHH)
# VH: B8 VH with Y95H, I101S, M103I, P104A, H111N, Q114P
# notes: human single VH domain
# Biological target: T2, CD137 on pre-stimulated human CD8+ T cells (human, UniProt Q07011 24-255)
# T2 construct: also called pre-stimulated CD8+ cells; primary T cells
# Test: flow cytometry, PMA/ionomycin-stimulated human CD8+ T cells, mean of 2-3 donors
# Experimental: Binding to primary T cells was measured using flow cytometry. Peripheral blood mononuclear cells (PBMCs) were isolated from human blood by density gradient centrifugation then CD8+ T cells purified using a negative selection isolation kit according to the manufacturer's protocol (Miltenyi Biotech cat no 130-042-401). T-cells were stimulated PMA/Ionomycin for 48-72 hours in RPMI media supplemented with 10% FBS, 2 mM Glutamine, 1× Pen/Strep. Cells were transferred into 96 well plates, blocked for 10 mins with staining buffer (PBS/1% BSA/0.05% Sodium Azide) then incubated with serially diluted VH in staining buffer (PBS/1% BSA) for 30 mins-1 hour at 4° C. Cells were washed by centrifugation then VH binding detected using Anti His antibody (Millipore 05-949) and Goat Anti Mouse Alexa Fluor-488 (Jackson ImmunoResearch cat no. 115-545-071). A Live Dead near IR stain (Molecular Probes cat no. L10119) was used for discrimination of live cells. After further washing cells were fixed and fluorescence measured by flow cytometry.
# T2 sequence (Q07011 24-255 limits assumed): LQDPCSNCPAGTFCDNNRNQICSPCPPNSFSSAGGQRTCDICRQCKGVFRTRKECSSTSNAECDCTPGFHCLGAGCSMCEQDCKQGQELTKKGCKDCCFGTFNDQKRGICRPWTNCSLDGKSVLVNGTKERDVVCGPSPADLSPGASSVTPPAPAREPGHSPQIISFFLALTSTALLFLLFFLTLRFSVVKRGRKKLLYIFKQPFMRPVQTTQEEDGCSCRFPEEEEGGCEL
row,EC50,Binder
1,1.9 nM,B1
2,0.89 nM,B2
3,0.88 nM,B3
4,0.22 nM,B4
5,0.61 nM,B5
6,2.4 nM,B6
7,6.5 nM,B7
8,0.61 nM,B8
9,0.6 nM,B9

# Biological target: T1, human OX40-Fc (R&D Systems cat no. …)
# Test: ELISA, coated OX40-Fc
# Experimental: Specificity of binding for CD137 over the tumour necrosis factor receptor family members OX40 and GITR (Glucocorticoid-induced TNFR-related) was determined using an ELISA assay. Nunc Maxisorp plates were coated with 1 ug/ml human CD137-Fc recombinant protein (Acro Biosystems 41B-H5258), human GITR-Fc (R&D Systems cat no. 689-GR) human OX40-Fc (R&D Systems cat no. 3388-OX) in sodium carbonate buffer overnight at 4° C. then washed twice with PBS. Non-specific protein interactions were blocked by incubation with 1% (w/v) skimmed milk powder (Marvel®) in PBS/0.1% Tween-20 for 1 hour at room temperature. Plates were washed twice with PBS then VH or antibody control (1 ug/ml) added for 1 hour at room temperature. Following three washes with PBS/0.1% Tween-20 a 1:1000 dilution of anti His-HRP (VH detection) or anti mouse-HRP (positive control mouse monoclonal antibody detection) was added in 1% Marvel/PBS/0.1% Tween-20. The detection antibodies were allowed to bind for 1 hour at room temperature then the plates were washed twice in PBS/0.1% Tween-20 and once in PBS. The ELISA was developed using TMB substrate and the reaction was stopped by the addition of 50 ul 0.5M H₂SO₄ solution. The absorbance at 450 nm was measured using the BMG Pherastar.
row,binding result,Binder
1,no binding (tested: 1 ug/ml),B1
2,no binding (tested: 1 ug/ml),B2
3,no binding (tested: 1 ug/ml),B3
4,no binding (tested: 1 ug/ml),B4
5,no binding (tested: 1 ug/ml),B5
6,no binding (tested: 1 ug/ml),B6
7,no binding (tested: 1 ug/ml),B7
8,no binding (tested: 1 ug/ml),B8
9,no binding (tested: 1 ug/ml),B9

# Biological target: T3, human CD137-human Fc chimeric protein (Acro Biosystems cat no. 41B-H5258) (human, UniProt Q07011 24-186)
# T3 construct: Bought protein; The Octet Protein G and Biacore experiments name no catalogue number; also called human CD137Fc recombinant protein; human CD137-Fc recombinant protein; not shown: human IgG1 Fc tag
# Test: BLI (Octet RED384), CD137-Fc amine-coupled to AR2G sensors, 1:1 model
# Experimental: The kinetics of monovalent and bispecific Humabody VH were determined on a ForteBio Octet RED 384 instrument. To study the interaction with the antigens, CD137-Fc tag protein (Acro Biosystems cat no. 41B-H5258) or PSMA-his (R&D Systems cat no. 4234-ZN) was immobilised onto AR2G biosensors (ForteBio cat no. 18-5082) by amine coupling. Monovalent VH and bispecific molecules were serially diluted (typically 1:2 dilution series starting between 12-25 nM, at the highest concentration) in kinetics buffer (0.1% BSA, 0.02% Tween, 1×PBS) and binding to the immobilised proteins was studied during the association and dissociation phases. PSMA binding was measured using 180 seconds association and 600 seconds dissociation phases. CD137 binding was measured 180 seconds association and 600 seconds dissociation phases. Reference subtracted data were fitted to a 1:1 binding model using the ForteBio Octet Data Analysis software.
Kd,koff,kon,Binder
0.52 nM,0.00036 s⁻¹,710000 M⁻¹ s⁻¹,B4
6.7 nM,0.0052 s⁻¹,770000 M⁻¹ s⁻¹,B6

# Biological target: T4, human CD137 expressed on the surface of CHO cells (human, UniProt Q07011 24-255)
# T4 construct: Also used for the Jurkat reporter cells that express human CD137 (functional rows); also called CHO human CD137 cells; CHO huCD137
# Test: FMAT ligand inhibition, CD137 Ligand on CHO human CD137 cells
# Method in brief: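 Read-out was FMAT fluorescence (FL2 median intensity), normalised to total binding controls after subtracting non-specific binding set with excess non-Fc-tagged competitor. Inhibition by purified Humabody VH of human CD137 ligand binding to CHO human CD137 cells was reported as % control.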
# T4 sequence (Q07011 24-255 limits assumed): as above
row,IC50,Binder
1,1.2 nM,B1
2,1.6 nM,B2
3,1.2 nM,B3
4,1.1 nM,B4
5,1.5 nM,B5
6,5.7 nM,B6
7,19 nM,B7
8,2 nM,B8
9,2 nM,B9

# Biological target: T3, human CD137-human Fc chimeric protein …
# Test: BLI (Octet RED384), CD137-Fc on Protein G sensors, 1:1 model
# Experimental: Binding kinetics of purified VH, bivalent VH and trivalent VH molecules were measured on a ForteBio Octet RED 384 instrument. CD137-Fc tagged protein was diluted to 3 μg/ml in kinetics buffer (0.1% BSA, 0.02% Tween, 1×PBS) and coupled to Protein G biosensors (ForteBio cat no. 18-5082) via the Fc tag. VH were serially diluted (typically 1:2 dilution series starting with 50 nM, VH at the highest concentration) and binding to the CD137-Fc-coupled Protein G biosensors measured. Binding kinetics were determined from the (blank subtracted) sensor gram trace using 1:1 binding models and ForteBio Octet Data Analysis 9.0 software. Example kinetic and binding affinity data obtained is shown Table 10 (monovalent VH) and FIG. 1 (bivalent and trivalent molecules).
Kd,koff,kon,Binder
0.12 nM,0.000625 s⁻¹,5.18e+06 M⁻¹ s⁻¹,B1
2.5 nM,0.00148 s⁻¹,596000 M⁻¹ s⁻¹,B2
3.2 nM,0.000963 s⁻¹,300000 M⁻¹ s⁻¹,B3
0.34 nM,0.00034 s⁻¹,989000 M⁻¹ s⁻¹,B4
0.72 nM,0.000219 s⁻¹,304000 M⁻¹ s⁻¹,B5
2.9 nM,0.00388 s⁻¹,1.35e+06 M⁻¹ s⁻¹,B6
5.3 nM,0.00616 s⁻¹,1.17e+06 M⁻¹ s⁻¹,B7
0.96 nM,0.00157 s⁻¹,1.63e+06 M⁻¹ s⁻¹,B8
